Each block holds one substance with its values, some of them ahead of it.
Tests used:
[1] = target: CRL4^DCAF1 (FL) (CUL4A-RBX1-DDB1-DCAF1), unneddylated (human) (UniProt Q13619); test: cryo-EM structure
[2] = target: CRL4^DCAF1 (FL) (CUL4A-RBX1-DDB1-DCAF1), unneddylated (human) (UniProt Q13619); test: SEC-MALS
[3] = target: CRL4^DCAF1 (FL) (R1247A) mutant (human) (UniProt Q13619); test: SEC-MALS
[4] = target: CRL4^DCAF1 (FL)-VPR complex (human | HIV-1) (UniProt Q13619); test: SEC-MALS
[5] = target: CRL4^DCAF1 (FL)-VPR-UNG2 complex (human | HIV-1 | not stated) (UniProt Q13619); test: SEC-MALS
[6] = target: CRL4^DCAF1(FL)-MERLIN complex (UniProt Q13619); test: SEC-MALS
[7] = target: DDB1-DCAF1 (FL) sub-complex (human) (UniProt Q16531); test: SEC-MALS

Sequence of CRL4^DCAF1 (FL) (CUL4A-RBX1-DDB1-DCAF1), unneddylated (Q13619 whole entry): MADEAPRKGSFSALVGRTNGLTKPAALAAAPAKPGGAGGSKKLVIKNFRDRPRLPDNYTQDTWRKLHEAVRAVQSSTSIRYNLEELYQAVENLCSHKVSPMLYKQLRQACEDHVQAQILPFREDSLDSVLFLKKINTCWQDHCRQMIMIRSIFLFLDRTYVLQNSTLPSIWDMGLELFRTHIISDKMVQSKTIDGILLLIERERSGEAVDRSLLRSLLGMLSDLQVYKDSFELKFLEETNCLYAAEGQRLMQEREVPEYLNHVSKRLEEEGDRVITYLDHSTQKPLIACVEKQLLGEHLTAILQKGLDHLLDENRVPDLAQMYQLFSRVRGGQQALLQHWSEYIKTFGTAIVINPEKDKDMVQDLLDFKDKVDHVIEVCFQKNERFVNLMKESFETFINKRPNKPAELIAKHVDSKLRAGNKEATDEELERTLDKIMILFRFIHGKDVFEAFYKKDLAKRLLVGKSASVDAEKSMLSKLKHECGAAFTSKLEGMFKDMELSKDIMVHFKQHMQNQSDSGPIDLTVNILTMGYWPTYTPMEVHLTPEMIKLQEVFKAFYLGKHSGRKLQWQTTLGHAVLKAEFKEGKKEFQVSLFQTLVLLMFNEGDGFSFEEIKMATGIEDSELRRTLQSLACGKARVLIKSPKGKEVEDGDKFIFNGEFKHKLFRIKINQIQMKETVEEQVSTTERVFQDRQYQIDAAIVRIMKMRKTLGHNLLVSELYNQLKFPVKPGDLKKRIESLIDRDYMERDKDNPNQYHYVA
Sequence of CRL4^DCAF1 (FL) (CUL4A-RBX1-DDB1-DCAF1), unneddylated (P62877 whole entry): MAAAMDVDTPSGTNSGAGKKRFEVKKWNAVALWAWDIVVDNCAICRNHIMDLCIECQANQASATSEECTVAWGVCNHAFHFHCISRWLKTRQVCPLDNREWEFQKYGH
Sequence of CRL4^DCAF1 (FL) (CUL4A-RBX1-DDB1-DCAF1), unneddylated (Q16531 whole entry): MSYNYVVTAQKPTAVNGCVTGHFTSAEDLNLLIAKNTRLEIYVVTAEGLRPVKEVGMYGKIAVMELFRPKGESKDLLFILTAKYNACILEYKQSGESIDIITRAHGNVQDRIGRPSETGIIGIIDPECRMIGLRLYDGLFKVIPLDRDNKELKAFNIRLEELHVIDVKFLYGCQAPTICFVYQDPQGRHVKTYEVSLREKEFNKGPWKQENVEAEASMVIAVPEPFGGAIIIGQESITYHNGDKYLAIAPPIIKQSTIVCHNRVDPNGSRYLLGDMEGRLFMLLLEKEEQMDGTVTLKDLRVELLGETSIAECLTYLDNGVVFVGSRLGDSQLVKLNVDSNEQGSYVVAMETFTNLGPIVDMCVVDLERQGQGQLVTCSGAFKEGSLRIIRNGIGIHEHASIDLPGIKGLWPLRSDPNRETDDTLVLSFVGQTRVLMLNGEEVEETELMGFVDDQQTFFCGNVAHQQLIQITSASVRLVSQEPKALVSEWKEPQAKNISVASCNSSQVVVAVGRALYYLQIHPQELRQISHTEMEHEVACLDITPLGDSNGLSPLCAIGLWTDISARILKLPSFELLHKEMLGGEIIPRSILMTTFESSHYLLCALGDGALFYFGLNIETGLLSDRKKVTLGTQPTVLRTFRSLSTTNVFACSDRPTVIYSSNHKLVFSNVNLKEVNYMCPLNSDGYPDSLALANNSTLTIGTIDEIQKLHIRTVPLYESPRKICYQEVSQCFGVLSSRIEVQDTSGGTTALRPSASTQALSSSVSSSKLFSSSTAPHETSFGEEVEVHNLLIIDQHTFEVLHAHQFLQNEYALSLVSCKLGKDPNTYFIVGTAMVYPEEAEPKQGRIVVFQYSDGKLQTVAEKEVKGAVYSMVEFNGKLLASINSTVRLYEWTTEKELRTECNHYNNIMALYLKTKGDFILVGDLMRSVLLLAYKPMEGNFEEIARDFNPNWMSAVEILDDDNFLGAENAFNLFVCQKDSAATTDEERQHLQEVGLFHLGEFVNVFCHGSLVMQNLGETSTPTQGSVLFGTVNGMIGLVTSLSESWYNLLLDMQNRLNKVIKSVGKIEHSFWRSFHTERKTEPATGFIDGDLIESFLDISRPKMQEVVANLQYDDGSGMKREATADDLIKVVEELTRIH
Sequence of CRL4^DCAF1 (FL) (CUL4A-RBX1-DDB1-DCAF1), unneddylated (Q9Y4B6 whole entry): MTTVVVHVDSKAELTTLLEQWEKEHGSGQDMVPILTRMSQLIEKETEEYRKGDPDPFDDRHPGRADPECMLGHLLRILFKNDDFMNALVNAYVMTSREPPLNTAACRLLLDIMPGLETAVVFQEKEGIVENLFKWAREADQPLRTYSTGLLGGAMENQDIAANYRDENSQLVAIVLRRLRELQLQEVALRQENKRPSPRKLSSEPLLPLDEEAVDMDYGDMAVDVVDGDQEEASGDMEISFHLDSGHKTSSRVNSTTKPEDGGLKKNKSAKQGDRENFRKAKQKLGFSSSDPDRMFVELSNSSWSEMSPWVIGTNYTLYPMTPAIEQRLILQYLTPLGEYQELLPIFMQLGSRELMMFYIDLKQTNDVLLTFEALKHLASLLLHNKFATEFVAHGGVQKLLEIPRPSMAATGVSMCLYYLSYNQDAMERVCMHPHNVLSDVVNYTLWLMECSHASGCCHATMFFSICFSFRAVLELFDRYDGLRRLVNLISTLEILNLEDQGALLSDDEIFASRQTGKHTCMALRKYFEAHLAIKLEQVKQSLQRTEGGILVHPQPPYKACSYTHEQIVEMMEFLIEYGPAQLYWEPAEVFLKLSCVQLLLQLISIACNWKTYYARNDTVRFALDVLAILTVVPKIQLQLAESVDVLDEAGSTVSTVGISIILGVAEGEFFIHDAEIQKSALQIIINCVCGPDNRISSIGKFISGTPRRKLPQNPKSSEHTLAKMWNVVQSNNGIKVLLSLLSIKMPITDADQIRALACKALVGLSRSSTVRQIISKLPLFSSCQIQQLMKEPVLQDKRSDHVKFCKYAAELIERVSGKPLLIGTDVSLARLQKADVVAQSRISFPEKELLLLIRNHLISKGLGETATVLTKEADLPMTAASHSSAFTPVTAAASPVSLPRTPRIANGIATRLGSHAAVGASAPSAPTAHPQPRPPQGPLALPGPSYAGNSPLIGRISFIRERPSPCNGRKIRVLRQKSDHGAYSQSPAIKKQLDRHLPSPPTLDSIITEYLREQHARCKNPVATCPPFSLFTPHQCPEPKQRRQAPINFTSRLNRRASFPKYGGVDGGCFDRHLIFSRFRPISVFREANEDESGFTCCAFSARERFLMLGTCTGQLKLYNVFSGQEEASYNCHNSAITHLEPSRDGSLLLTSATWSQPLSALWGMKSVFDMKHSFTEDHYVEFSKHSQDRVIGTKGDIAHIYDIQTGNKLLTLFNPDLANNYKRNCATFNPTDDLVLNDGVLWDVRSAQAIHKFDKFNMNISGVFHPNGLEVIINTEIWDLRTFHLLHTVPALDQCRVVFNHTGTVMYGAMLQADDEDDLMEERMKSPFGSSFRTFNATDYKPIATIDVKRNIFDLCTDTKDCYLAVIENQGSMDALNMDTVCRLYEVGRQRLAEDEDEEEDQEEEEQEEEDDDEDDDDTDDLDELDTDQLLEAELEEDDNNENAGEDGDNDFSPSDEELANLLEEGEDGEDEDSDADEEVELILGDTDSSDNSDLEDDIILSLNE

Substance: CRL4^DCAF1 (FL) (CUL4A-RBX1-DDB1-DCAF1), unneddylated (from UniProt Q13619;P62877;Q16531;Q9Y4B6) (complex)
stoichiometry N [1]: 4 | stoichiometry N [2]: 4

Substance: CRL4^DCAF1 (FL) (R1247A) mutant (from UniProt Q13619;P62877;Q16531;Q9Y4B6) (complex)
stoichiometry N [3]: 2

The next lines start with the values.

stoichiometry N [4]: 4
Substance: CRL4^DCAF1 (FL)-VPR complex (from UniProt Q13619;P62877;Q16531;Q9Y4B6;P12520)

stoichiometry N [5]: 2
Substance: CRL4^DCAF1 (FL)-VPR-UNG2 complex (from UniProt Q13619;P62877;Q16531;Q9Y4B6;P12520;P13051-1)

stoichiometry N [6]: 4
Substance: CRL4^DCAF1(FL)-MERLIN complex (from UniProt Q13619;P62877;Q16531;Q9Y4B6;P35240)

stoichiometry N [7]: 2
Substance: DDB1-DCAF1 (FL) sub-complex (from UniProt Q16531;Q9Y4B6)

From paper PMC8591539
